PMC10959955 (2024)
Where a chain is given by its changes, count along the chain named. In names and notes the source's numbering stands.

B1: His6-tagged RING domain heterodimer, GA mutant (GST-RING^A T948G^A-T952A^A with His6-Twin-Strep-Rad6A-RING^B) (complex)
chain 1: PDNVPKCDEILMEEIKDYKARLTCPCCNMRKKDAVLTKCFHVFCFECVKGRYDARQRKCPKCNAAFGANDFHRIYIG
chain 2: MSTPARRRLMRDFKRLQEDPPAGVSGAPSENNIMVWNAVIFGPEGTPFEDGTFKLTIEFTEEYPNKPPTVRFVSKMFHPNVYADGSICLDILQNRWSPTYDVSSILTSIQSLLDEPNPNSPANSQAAQLYQENKREYEKRVSAIVEQSWRDCVEVYADADEILQEEIKEYKARLTCPCCNTRKKDAVLTKCFHVFCFECVRGRYEARQRKCPKCNAAFGAHDFHRIYIS
modifications: RED-Tris-NTA label on the His6 tag
B2: His6-tagged RING domain heterodimer, GA + TT mutant (GST-RING^A T948G^A-T952A^A with His6-Twin-Strep-Rad6A-RING^B G974T^B-A978T^B) (complex)
chain 1: B1 chain 1
chain 2: B1 chain 2 with G202T, A206T
modifications: RED-Tris-NTA label on the His6 tag
B3: His6-tagged RING domain heterodimer, TT mutant (GST-RING^A with His6-Twin-Strep-Rad6A-RING^B G974T^B-A978T^B) (complex)
chain 1: B1 chain 1 with G50T, A54T
chain 2: B1 chain 2 with G202T, A206T
modifications: RED-Tris-NTA label on the His6 tag
B4: His6-tagged RING domain heterodimer, wild type (GST-RING^A with His6-Twin-Strep-Rad6A-RING^B) (complex)
chain 1: B1 chain 1 with G50T, A54T
chain 2: B1 chain 2
modifications: RED-Tris-NTA label on the His6 tag

Each binder was assayed against nucleosome reconstituted with human core histones and Widom 601 DNA (human, UniProt P04908 2-130; P06899 1-126; P68431 1-136; P62805 2-103) (assay: MST).

| Binder | Kd [nM] |
| --- | --- |
| B1 | 11.8 |
| B2 | 34 |
| B3 | 7.3 |
| B4 | 7.8 |
